Test results reported in article PMC6270119, “Application of Reductive ^13C-Methylation of Lysines to Enhance the Sensitivity of Conventional NMR Methods” (Molecules, 2013).

How the values were obtained:
[1] = target: reductively methylated calmodulin (UniProt P0DP23); assay: NMR titration; 1H-13C HSQC of 1 µM reductively methylated CaM with 0, 0.5, 1 and 1.5 µM FM-HVR (peptide not aggregated); 25 °C; 50 mM Tris-citrate pH 6.5, 50 mM NaCl, 5 mM MgCl2, 10 mM β-mercaptoethanol, 10 mM CaCl2
[2] = target: reductively methylated calmodulin (UniProt P0DP23); assay: NMR titration; 1H-13C HSQC of 70 µM reductively methylated CaM with FM-HVR at 0:1, 1:1, 2:1 and 3:1 molar ratios (aggregated FM-HVR); 25 °C; 50 mM Tris-citrate pH 6.5, 50 mM NaCl, 5 mM MgCl2, 10 mM β-mercaptoethanol, 10 mM CaCl2
[3] = target: fully post-translationally modified (farnesylated and methylated) hypervariable region peptide of K-Ras4B (human); assay: pyrene fluorescence (critical aggregation concentration); peptide at different concentrations with 2 µM pyrene in PBS; excitation scans 315-360 nm, emission 393 nm; ratio I334/I337 against the logarithm of the peptide concentration
[4] = Dynamic light scattering particle size analysis; assay type: physicochemical; conditions: DLS, 0.25 mM (250 μM) FM-HVR in PBS, room temperature
Description: This roughly corresponds to the monomeric form of peptide. However, upon introduction of farnesylation and methylation the hydrodynamic radius of the peptide increased to 8.15 ± 0.46 nm at a four times lower concentration as shown in Figure 2B. This hydrodynamic radius corresponded to a particle of 471.92 ± 63.75 kDa in size. Observation of higher order assemblies of FM-HVR allowed us to conclude that post-translational modifications in K-Ras can lead to aggregation through hydrophobic interactions.
For studying aggregation of peptides, dynamic light scattering experiments were performed on a DynaPro-801 molecular sizing instrument (Wyatt Technology Europe, Dernbach, Germany). The peptide samples were dialyzed against PBS. The sample volume of 250 μL was used for the experiments. […] Samples were centrifuged at 12000 rpm for 10 min before experiments. Analysis of the data was carried out using Dynamics software.

Molecule | FM-HVR to CaM titration ratio at saturation (FM-HVR per CaM) [1] | FM-HVR to CaM titration ratio at saturation (FM-HVR per CaM) [2] | critical aggregation concentration [3] [µM] | hydrodynamic radius [4] [nm] | particle mass corresponding to hydrodynamic radius [4] [kDa]
fully post-translationally modified (farnesylated and methylated) hypervariable region peptide of K-Ras4B | 1 | 2 | > 10 | – | –
COC(=O)[C@H](CSC/C=C(\C)CC/C=C(\C)CCC=C(C)C)NC(=O)C1CCC(CN2C(=O)CC(SC[C@H](NC(=O)[C@H](CCCCN)NC(=O)[C@H](CO)NC(=O)[C@H](CCCCN)NC(=O)[C@H](CCCCN)NC(=O)[C@H](CCCCN)NC(=O)[C@H](CCCCN)NC(=O)[C@H](CCCCN)NC(=O)[C@H](CCCCN)NC(=O)CNC(=O)[C@H](CC(=O)O)NC(=O)[C@H](CCCCN)NC(=O)[C@H](CO)NC(=O)[C@H](CCSC)NC(=O)[C@H](CCCCN)NC(=O)[C@H](CCC(=O)O)NC(=O)[C@@H](N)CCCCN)C(=O)O)C2=O)CC1 (some centres unmarked) [FM-HVR] | – | – | – | 8.15 ± 0.46 | 471.92 ± 63.75
